target: KHK4083; experiment: BLI; conditions: 100 nmol/L KHK4083; parent: est. 1.0; read off a plot

ratio to parent | Substance
15 | Recombinant OX40-His protein (human OX40) (from UniProt P43489) K82A
1 | Recombinant OX40-His protein (human OX40) (from UniProt P43489) S38A
21 | Recombinant OX40-His protein (human OX40) (from UniProt P43489) Y119A
0.8 | Recombinant OX40-His protein (human OX40) (from UniProt P43489) D34A
0.6 | Recombinant OX40-His protein (human OX40) (from UniProt P43489) T35A
2 | Recombinant OX40-His protein (human OX40) (from UniProt P43489) D40A
6.4 | Recombinant OX40-His protein (human OX40) (from UniProt P43489) S118A
28 | Recombinant OX40-His protein (human OX40) (from UniProt P43489) D117A
1.6 | Recombinant OX40-His protein (human OX40) (from UniProt P43489) Y36A
16 | Recombinant OX40-His protein (human OX40) (from UniProt P43489) K120A
0.6 | Recombinant OX40-His protein (human OX40) (from UniProt P43489) H30A

Reference: publication PMC12102438
